Values of other authors, collected in article PMC2446434.
pKd: −log10 of the molar value.

Molecular target: CD200 (Mus musculus) (UniProt O54901)
Assay: SPR

Sequence of UniProt O54901 (O54901 31-232): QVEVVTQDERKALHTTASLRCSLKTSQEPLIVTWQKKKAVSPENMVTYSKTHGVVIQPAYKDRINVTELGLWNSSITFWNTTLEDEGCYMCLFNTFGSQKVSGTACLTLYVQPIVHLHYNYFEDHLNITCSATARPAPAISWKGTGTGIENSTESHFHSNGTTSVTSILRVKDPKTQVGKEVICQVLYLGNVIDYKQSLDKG

In the case of CD200R (from UniProt Q9ES57), the pKd is given as 5.40.
